Data on one substance can be found in publication PMC5135098, “Attenuation of Quorum Sensing Regulated Virulence of Pectobacterium carotovorum subsp. carotovorum through an AHL Lactonase Produced by Lysinibacillus sp. Gs50” (PLoS ONE, 2016).

For the data set, the system named is CCCCCC(=O)NC1CCOC1=O. In words: purified protein. To be noted: pH 8.0, 50 mM Tris-Cl, 35°C (methods: 30°C, 2 h for saturation curve), no added metal.

As for AdeH (Lysinibacillus sp. Gs50), the Km (as a rule, the substrate concentration at which the rate is half of its maximum) is 3.089 µM.
